# Reference: the nanobody polyreactivity screen of Harvey et al. (2022)
# Test: yeast display, Sf9 membrane polyspecificity reagent, FACS + sequencing; frameworks hold sequencing errors
# Summary of the method: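 Nanobodies from a synthetic yeast display library (Saccharomyces cerevisiae BJ5465), induced 36–48 hours with galactose, were stained 1 hour at 4 °C with 10% biotinylated, detergent-solubilized Sf9 membrane reagent, enriched on streptavidin microbeads, then FACS-sorted. Anti-HA (expression) and streptavidin (reagent binding) fluorescence set low and high (top ~1%) gates. Polyreactivity labels come from the gate of origin. Genes were colony-PCR amplified, MiSeq 2 × 250 sequenced and filtered by CDR length.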
row,Sequence,polyreactivity (PSR sort gate)
1,QVQLVESGGGLVQAGGSLRLSCAASGSTFRRNAMGWYRQAPGKERELVAAISSGGGSTYYADSVKGRFTISRDNAKNTVYLQMNSLKPEVTAVYYCAAGYFGHYVEYYYWGQGTQVTVSS,high polyreactivity
2,QVQLVESGGGLVQAGGSLRLSCAASGSTFRRNAMGWYRQAPGKERELVAAITRRGGTYYADSVKGRFTISRDNAKNTVYLQMNSLKPEDTAVYYCAADRSYYDWRYGGFDYWGQGTQVTVSS,high polyreactivity
3,QVQLVESGGGLVQAGGSLRLSCAASGSTFRRNAMGWYRQAPGKERELVASITSGGSTYYADSVKGRFTISRDNAKNTVYLQMNSLKPEDTAVYYCAVVWRGGYRWPYEYWGQGTQVTVSS,low polyreactivity
4,QVQLVESGGGLVQAGGSLRLSCAASGSTFRRNVMGWSRQAPGKERELVAVISKSGGSTYYADSVKGRFTISRDNAENTVYLQMNSLKPEDTAVYYCAARYLKGYGYWGQGTQVTVSS,high polyreactivity
5,QVQLVESGGGLVQAGGSLRLSCAASGSTFRRYAMGWYRQAPGKEREISTSDGSTYYADSVKGRFTISRDNAKNTVYLQMNSLKPEDTAVYYCATEIEYYVGSVPDMGYWGQGTQVTVSS,low polyreactivity
6,QVQLVESGGGLVQAGGSLRLSCAASGSTFRRYAMGWYRQAPGKERELVAGISYSGGRTYYADSVKGRFTISRDNAKNTVYLQMNSLKPEDTAVYYCAAKSFPSVRHHENYYWGQVTQVTVSS,high polyreactivity
7,QVQLVESGGGLVQAGGSLRLSCAASGSTFRRYVMGWYRQAPGKERELVAAIRWNVGSTYYADSVKGRFTISRDNAKNTVYLQMNSLKPEDTAVYYCAAYEYVRGGYGYWGQGTQVTVSS,high polyreactivity
8,QVQLVESGGGLVQAGGSLRLSCAASGSTFRSNAMGWYRQAPGKERELVAAIRYSGGSTYYADSVKGRFTISRDNAKNTVYLQMNSLKQEDTAVYYCATRFRTYYVDHGYWGQGTQVTVSS,high polyreactivity
9,QVQLVESGGGLVQAGGSLRLSCAASGSTFRSYAMGWYRQAPGKEREFVAALSSSDDSSYYADSVKGRFTISRDNAKNTVYLQMNSLKPEDTAVYYCAARPWNDGYYVGRFHMDYWGQGTQVTVSS,low polyreactivity
10,QVQLVESGGGLVQAGGSLRLSCAASGSTFRSYAMGWYRQSPGNERELVAAISYSGDSTYYADSVKGRFTISSDNAKNTVYLQMNSLKPEDTAVYYCAALRDWDIQCEPWKRYGYWGQGTQVTVSS,low polyreactivity
11,QVQLVESGGGLVQAGGSLRLSCAASGSTFRSYTMVWYRQAPGKERELVADINGTGGSTYYADSVKGRFTISRDNAKNTVYLQMNSRKPEDTAVYNCAADGYFRTVTSGWALRMGYWGQGTQVTVSS,high polyreactivity
12,QVQLVESGGGLVQAGGSLRLSCAASGSTFRTNGMGWYRQAPGKESELVAAITRGTSTNYADSVKGRFTISRDNAKNTVYLQMNSLKPEDTAVYYCAADGPDRYHYTTTRYRYDYWGQGTQVTVSS,low polyreactivity
13,QVQLVESGGGLVQAGGSLRLSCAASGSTFRTNTMGWYRQAPGKERELVADISWSGGSTYYADSVKGRFTISRDNAKNTVYLQMNSLKPEDTAVYYCAKDGAYWTYFSWYDYWGQGTQVTVSS,low polyreactivity
14,QVQLVESGGGLVQAGGSLRLSCAASGSTFRTYAMGWYRQAPGKERELVADITWRGGSTYYADSVKGRFTISRDNAKNTVYLQMNSLKPEDTAVYYCATDRGPEVVLYDYWGQGTQVTVSS,low polyreactivity
15,QVQLVESGGGLVQAGGSLRLSCAASGSTFRTYAMGWYRQAPGKERELVASIDSTGSTNYADSVKGRFTISRDNAKNTVYLQMNSLKPEDTAVYYCAAETYSYPPFYAYDYWGQGTQVTVSS,low polyreactivity
16,QVQLVESGGGLVQAGGSLRLSCAASGSTFRVNAMGWYRQAHGKEREFVAGISFGGGSTYYADSVKGRFTISRDNAKNTVYFQMNSLKPEDTADYYCNARGKGSGAVRYNYWGQGTLVTVSS,high polyreactivity
17,QVQLVESGGGLVQAGGSLRLSCAASGSTFRVNAMGWYRQAPGKERELVAAISYRGGSTYYADSVKGRFTISRDNAKNTVYLQMNNLKPEDTAVYYCNADLKRRTYGPDSYYWGQGTQVTVSS,high polyreactivity
18,QVQLVESGGGLVQAGGSLRLSCAASGSTFRVNDMGWYRQAPGKESEFVAGISWSGGSTYYADSVKGRFTISRDNAKNTVYLQMNTLKPEETAVYYCAADGYGQGNNRNYNYGGQGTQVTVSS,low polyreactivity
19,QVQLVESGGGLVQAGGSLRLSCAASGSTFRVYAMGWYRQAPGKERELVAAISGSGGSTYYADSVKGRFTISRDNAKNTVSLQMNSMKPEDTAVYYCAARSWYTEYYWGQGTQVTVSS,high polyreactivity
20,QVQLVESGGGLVQAGGSLRLSCAASGSTFRVYAMGWYRQAPGKERELVAAISRSGSITYYADSVKGRFTISRDNAKNTVYLQMNSLKPEDTAVYYCAARTYSRFTASTYYYWGQGTQVTVSS,high polyreactivity

row,Sequence,polyreactivity (PSR sort gate)
1,QVQLVESGGGLVQAGGSLRLSCAASGSTFRWNTMGWDRQAPGKEREMVAAISYSGGITYYADSVKGRFTISRDNAKNTVYLQMNSLKPEDTAVYYCNLVAYRSYLSSYDYWGQGTQVTVSS,high polyreactivity
2,QVQLVESGGGLVQAGGSLRLSCAASGSTFRWYAMGWYRQAPGKERELVAAITSSGSTYYADSVKGRFTISRDNAKNTVYLQMNSLKPEDTAVYYCAARANGYWNTYEHDYWGQGIQVTVSS,low polyreactivity
3,QVQLVESGGGLVQAGGSLRLSCAASGSTFRWYTMGWYRQATGKERDLVAAINQSGSRTYYADSVKGRFTISRDNAKNTVYLQMNSLKPEDTAVYYCNAKSYKSPHTYYYWGQGTQVTVSS,high polyreactivity
4,QVQLVESGGGLVQAGGSLRLSCAASGSTFRYNAMGWYRQAPGKERELVAAINRGGGTDYADSVKGRFTISRDNAKNTVYLQMNSLKPEDTAVYYCNATTGYGGYNYWGQGTQVTVSS,low polyreactivity
5,QVQLVESGGGLVQAGGSLRLSCAASGSTFRYNAMGWYRQAPGKERELVAAITGSGDRTFYADSVKGRFTISRDNAKNTVYLQMNSLKPEDTAVYYCAARSRYPFSYGYYYWGQGTQVTVSS,high polyreactivity
6,QVQLVESGGGLVQAGGSLRLSCAASGSTFRYNAMGWYRQAPGKERELVAAITSGGGTNYADSVKGRFTISRDNAKNTVYLQMNSLKPEDTAVYYCAAGAWRGPYSGYYYWGQGTQVTVSS,low polyreactivity
7,QVQLVESGGGLVQAGGSLRLSCAASGSTFRYNAMGWYRQAPGKERELVAAITSGGTTNYADSVKGRFTISRDNAKNTVYLQMNSLKPEDTAVYYCAKKRPGFLRYGSIGEFQYDYWGQGTQVTVSS,low polyreactivity
8,QVQLVESGGGLVQAGGSLRLSCAASGSTFRYNAMGWYRQAPGKERELVASINRGGGGTYYADSVKGRFTISRDNAKKTVYLQMNSLKPEDTAVYYCAKARFTRGTWFYYWGQGTQVTVSS,high polyreactivity
9,QVQLVESGGGLVQAGGSLRLSCAASGSTFRYNAMGWYRQAPGKERELVASITWSGGDTYYADSVKGRFTISRDNAKNTVYLQMNSLKPEDTAVYYCAKKGYASRYFIYDYWGQGTQVTVSS,low polyreactivity
10,QVQLVESGGGLVQAGGSLRLSCAASGSTFRYNTMGWYRQAPGKEREFVAAISQSGGSTYYADSVKGRFTISRDNAKNTVYLQMNSLKPEDTAVYYCNARPFYATYRYRGYSWGQGTQVTVSS,high polyreactivity
11,QVQLVESGGGLVQAGGSLRLSCAASGSTFRYNTMGWYRQAPGKERELVAAINISSSSTYYADSVKGRFTISRDNAKNTVYLQMNSLKPEDTAVYYCANRDYVPIATDENDDYWGQGTQVTVSS,low polyreactivity
12,QVQLVESGGGLVQAGGSLRLSCAASGSTFRYYAKGWYRQAPGKERELVAAIAAGSNTNYADSVKGRFTISRDNAKNTVYLQMNSVKPEDTAVFYCAVASYARVQYEYWGQGTQVTVNS,low polyreactivity
13,QVQLVESGGGLVQAGGSLRLSCAASGSTFRYYAMAWYREAPGKERELVAAISRRGGSTYYADSVKGRFTISRDNAKNTVYLQMNSLIPEDTAVYYCNAAASTFTSWIRGPGVCYDYWGQGTQVTVSS,high polyreactivity
14,QVQLVESGGGLVQAGGSLRLSCAASGSTFRYYAMGWYRHAPGKDRELVAAISGSGGRTYYADSVKGRFTISRDNAKNTVYLQMNSLKPEDTAVYYCNTRGRRTDYDYWGQGTQVTVSS,high polyreactivity
15,QVQLVESGGGLVQAGGSLRLSCAASGSTFRYYAMGWYRQAPGKEREFVAAISWSGSSTYYADSVKGRFTISRDNAKNTVYLQMNSLKPEDTAVYYCAARYRYRSSSYDYWGQGTQVTVSS,high polyreactivity
16,QVQLVESGGGLVQAGGSLRLSCAASGSTFRYYAMGWYRQAPGKERELVAAINSGGSTYYADSVKGRFTISRDNAKNTVYLQMNSLKPEDTAVYYCAAYYFWYLYWGQGTQVTVSS,high polyreactivity
17,QVQLVESGGGLVQAGGSLRLSCAASGSTFRYYAMGWYRQAPGKERELVAAITRGDSTNYADSVKGRFTISRDNAKNTVYLQMNSLKPEDTAVYYCNAGDGPDEEYDYWGQGTQVTVSS,low polyreactivity
18,QVQLVESGGGLVQAGGSLRLSCAASGSTFRYYVMGWYRQAPGKERELVARITSAASTNYADSVKGRFTISRDNAKNTVYLQMNSLKPEDTAVYYCAARKYGSRYRLKYDYWGQGTQVTVSS,high polyreactivity
19,QVQLVESGGGLVQAGGSLRLSCAASGSTFSANAMGWYRQAPGKERELVAAITYRGGNTYYADSVKGRFTISRDNAKNTVYLQLNSLKPEDTAVYYCNRDLRVRYRRLKYGYWGQGTQVTVSS,low polyreactivity
20,QVQLVESGGGLVQAGGSLRLSCAASGSTFSANAMGWYRQAPGKERELVADISTGGSTKYADSVKGRFTISRDNAKNTVYLQMNSLKPEDTAVYYCAARRRWARGSAIRGYWGQGTQVTVSS,high polyreactivity
